For data set [1], the target named is insulin.
Data set [2] deals with the molecule itself. In words: gel filtration (S75 26/60), self-association of monomers.

B1: DsbA (soluble DsbA of E. coli) (protein)
chain: AQYEDGKQYTTLEKPVAGAPQVLEFFSFFCPHCYQFEEVLHISDNVKKKLPEGVKMTKYHVNFMGGDLGKDLTQAWAVAMALGVEDKVTVPLFEGVQKTQTIRSASDIRDVFINAGIKGEEYDAAWNSFVVKSLVAQQEKAAADVQLRGVPAMFVNGKYQLNPQGMDTSNMDVFVQQYADTVKYLSEKK
Consider B1, for which, in data set [1], the “increase of turbidity at 650 nm (insulin disulphide reduction assay)” value is “the activity is directly comparable to the activity of soluble DsbA”.

B2: DsbA-C4bp fusion protein (human C4bp core fused to the C-terminus of the E. coli DsbA protein) (protein)
chain: AQYEDGKQYTTLEKPVAGAPQVLEFFSFFCPHCYQFEEVLHISDNVKKKLPEGVKMTKYHVNFMGGDLGKDLTQAWAVAMALGVEDKVTVPLFEGVQKTQTIRSASDIRDVFINAGIKGEEYDAAWNSFVVKSLVAQQEKAAADVQLRGVPAMFVNGKYQLNPQGMDTSNMDVFVQQYADTVKYLSEKKETPEGCEQVLTGKRLMQCLPNPEDVKMALEVYKLSLEIEQLELQRDSARQSTLDKEL
As to B2, the “increase of turbidity at 650 nm (insulin disulphide reduction assay)” value in data set [1] was “the DsbA present in the DsbA-C4bp fusion protein is still active, and the activity is directly comparable to the activity of soluble DsbA”.

B3: db-C4bp fusion protein (downstream box peptide fused N-terminal to the 57 amino acid core domain of the human C4bp alpha chain) (other)
chain: MASMNHKGSETPEGCEQVLTGKRLMQCLPNPEDVKMALEVYKLSLEIEQLELQRDSARQSTLDKEL
notes: Expressed in the cytosol of E. coli C41(DE3); Predicted monomer size 7491.5 Da; Recovered as an oligomer of about 60-67 kDa by gel filtration, with disulphide bonds between the monomers; also called native db-C4bp; product of plasmid pAVD 77
In the case of B3, the binding result in data set [2] is “binds”.

(Values after patent publication US20070092933A1 (AVIDIS, published 2007).)
